Experimental data reported in patent publication US20200270321A1.

Legend:
[1] = target: mouse 4-1BB on activated mouse splenocytes (mouse) (UniProt P20334); test: flow cytometry on activated mouse splenocytes, gate CD8+ T cells; PE anti-human IgG Fc-gamma F(ab')2; median fluorescence, baseline corrected
[2] = target: mouse 4-1BB on activated mouse splenocytes (mouse) (UniProt P20334); test: flow cytometry on activated mouse splenocytes, gate CD4+ T cells; PE anti-human IgG Fc-gamma F(ab')2; median fluorescence, baseline corrected

mouse 4-1BB on activated mouse splenocytes (mouse), sequence (P20334 24-256): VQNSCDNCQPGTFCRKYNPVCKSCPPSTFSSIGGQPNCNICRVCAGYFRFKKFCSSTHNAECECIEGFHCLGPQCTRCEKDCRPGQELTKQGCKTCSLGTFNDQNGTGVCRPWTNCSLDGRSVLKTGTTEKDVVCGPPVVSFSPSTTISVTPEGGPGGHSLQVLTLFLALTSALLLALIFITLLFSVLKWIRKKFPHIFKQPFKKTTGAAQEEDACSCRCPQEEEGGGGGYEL

EC50 (read off the curve) [1]: 0.1 nM
EC50 (read off the curve) [2]: 0.09 nM
Substance: anti-mouse Lob12.3 huIgG1 (antibody)
